# Data reported in patent publication CN113214399A (SHENZHEN INNOVA NANOBODI CO LTD, dated 2021).
# T1: 重组AFP抗原 (甲胎蛋白, α-fetoprotein) (UniProt P02771 19-609, limits assumed)
# T1 construct: Bought recombinant antigen used to immunise the alpaca
# T1 sequence (looked up): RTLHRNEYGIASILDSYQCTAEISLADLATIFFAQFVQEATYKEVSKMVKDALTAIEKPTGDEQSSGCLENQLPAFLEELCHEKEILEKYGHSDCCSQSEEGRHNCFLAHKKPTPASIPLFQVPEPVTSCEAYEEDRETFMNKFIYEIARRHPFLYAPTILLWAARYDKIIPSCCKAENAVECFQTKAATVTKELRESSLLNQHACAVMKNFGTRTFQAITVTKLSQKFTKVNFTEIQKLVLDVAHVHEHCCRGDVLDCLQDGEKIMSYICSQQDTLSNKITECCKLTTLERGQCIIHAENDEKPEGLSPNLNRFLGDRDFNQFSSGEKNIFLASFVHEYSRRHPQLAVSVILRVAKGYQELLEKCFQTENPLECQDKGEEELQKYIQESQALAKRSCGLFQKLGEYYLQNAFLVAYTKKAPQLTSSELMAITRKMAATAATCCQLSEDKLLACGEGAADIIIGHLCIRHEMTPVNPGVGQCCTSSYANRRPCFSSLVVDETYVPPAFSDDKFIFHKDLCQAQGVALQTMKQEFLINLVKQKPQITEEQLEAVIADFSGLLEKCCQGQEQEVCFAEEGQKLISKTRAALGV
# T2: 血清标本中的AFP抗原 (UniProt P02771 19-609)
# T2 construct: AFP in serum samples, detected by the double-antibody sandwich assay; also called 质控血清AFP; 标准血清中的AFP
# T2 sequence (looked up): T1 sequence (looked up)
# B1: 纳米抗体1C5 (VHH)
# VHH: QVQLQESGGGLVQAGGSLRLSCKASERTFSSYSMAWYRQAPGKKREFVASISWDDERTYYTDSVKGRFTISRPNAKNTVYLQMNSLKPEDTAVYYCAVGGLSDGLGPSYDYWGQGTQVTVSS
# B2: 带有化学发光区序列的纳米抗体1C5-HAP (other)
# chain: QVQLQESGGGLVQAGGSLRLSCKASERTFSSYSMAWYRQAPGKKREFVASISWDDERTYYTDSVKGRFTISRPNAKNTVYLQMNSLKPEDTAVYYCAVGGLSDGLGPSYDYWGQGTQVTVSSGGGGSGGGGSGGGGSIIPVEEENPDFWNREAAEALGAAKKLQPAQTAAKNLIIFLGDGMGVSTVTAARILKGQKKDKLGPEIPLAMDRFPYVALSKTYNVDKHVPDSGATATAYLCGVKGNFQTIGLSAAARFNQCNTTRGNEVISVMNRAKKAGKSVGVVTTTRVQHASPAGTYAHTVNRNWYSDADVPASARQEGCQDIATQLISNMDIDVILGGGRKYMFRMGTPDPEYPDDYSQGGTRLDGKNLVQEWLAKRQGARYVWNRTELMQASLDPSVTHLMGLFEPGDMKYEIHRDSTLDPSLMEMTEAALRLLSRNPRGFFLFVEGGRIDHGHHESRAYRALTETIMFDDAIERAGQLTSEEDTLSLVTADHSHVFSFGGYPLRGSSIFGLAPGKARDRKAYTVLLYGNGPGYVLKDGARPDVTESESGSPEYRQQSAVPLDEETHAGEDVAVFARGPQAHLVHGVQEQTFIAHVMAFAACLEPYTACDLAPPAGTTD
# notes: Expressed in 293 cells
# Experiments:
# [1] = target: T1, 重组AFP抗原 (甲胎蛋白, α-fetoprotein); assay: Biacore sequential injection on immobilised antigen
# 血清标本中的AFP抗原 = target: T2, 血清标本中的AFP抗原; assay: Double-antibody sandwich chemiluminescence immunoassay, detection antibody
binder,measurement,setting,value
B1,binding result,[1],binds
B2,binding result,血清标本中的AFP抗原,binds
